B1: BAN2401: anti-Aβ clinical candidate antibody, Ph2; mouse analog mAb158 (antibody, chains of the INN, looked up, V domains shown)
VH: EVQLVESGGGLVQPGGSLRLSCSASGFTFSSFGMHWVRQAPGKGLEWVAYISSGSSTIYYGDTVKGRFTISRDNAKNSLFLQMSSLRAEDTAVYYCAREGGYYYGRSYYTMDYWGQGTTVTVSS
VL: DVVMTQSPLSLPVTPGAPASISCRSSQSIVHSNGNTYLEWYLQKPGQSPKLLIYKVSNRFSGVPDRFSGSGSGTDFTLRISRVEAEDVGIYYCFQGSHVPPTFGPGTKLEIK
B2: gantenerumab: anti-Aβ clinical candidate antibody, Ph3 (antibody, chains of the INN, looked up, V domains shown)
VH: QVELVESGGGLVQPGGSLRLSCAASGFTFSSYAMSWVRQAPGKGLEWVSAINASGTRTYYADSVKGRFTISRDNSKNTLYLQMNSLRAEDTAVYYCARGKGNTHKPYGYVRYFDVWGQGTLVTVSS
VL: DIVLTQSPATLSLSPGERATLSCRASQSVSSSYLAWYQQKPGQAPRLLIYGASSRATGVPARFSGSGSGTDFTLTISSLEPEDFATYYCLQIYNMPITFGQGTKVEIK
B3: ^chgantenerumab: murine chimeric IgG2a/kappa analog with the variable domains of gantenerumab (antibody, chains of the INN, looked up, V domains shown)
VH: B2 VH
VL: B2 VL
modifications: murine chimeric IgG2a/kappa

How the values were obtained:
[1] = system: Aβ (Monomer, Aggregate); conditions: A = aggregate, M = monomer; ref [9]–[19],[54] as given per antibody in column Ref. of Table 1; cited from earlier work
[2] = target: Aβ1-40; experiment: ELISA, binding of Fab fragments to biotinylated Aβ1-40 on streptavidin-coated plates; conditions: papain-generated Fab fragments, Aβ1-40-Lys-Biotin 1 μg/mL on streptavidin plates, average of two measurements
Procedure: For binding studies with Fab fragments, biotin-conjugated Aβ1-40 (Aβ1-40-Lys-Biotin; AnaSpec) was captured on streptavidin-coated plates (Thermo Fisher Scientific) by incubating 50 μL/well of the peptide at a concentration of 1 μg/mL in Assay Buffer (PBS containing 1% bovine serum albumin (BSA)) for 1 h at room temperature. Plates were washed with Wash Buffer (PBS containing 0.05% Tween-20) and blocked for 1 h at room temperature with Blocking Buffer (PBS containing 1% BSA). Antibodies or Fabs were serially diluted to the indicated concentrations in Assay Buffer, and 50 μL/well were added to plates in duplicate wells and incubated for 2 h at room temperature. Plates were washed three times with Wash Buffer, and bound antibodies or Fabs were detected using a horseradish peroxidase (HRP)-conjugated goat anti-mouse polyclonal secondary antibody (Jackson ImmunoResearch), followed by measurement of captured HRP by incubation with 1-Step TMB substrate (Thermo Fisher Scientific) following the manufacturer’s instructions.

[3] = system: dimeric Aβ1-15 MAP; experiment: ELISA with multi-antigen peptides, dimer; assay type: binding; conditions: result in words
Procedure: (§1) Aβ peptide binding to anti-Aβ antibodies measured by isothermal titration calorimetry (ITC). Titration of mAb with Aβ1-28 peptide. […]
(§2) mAb:Aβ ratio. The solid line is the fit to a two-site binding model (2 Aβ peptides binding to 1 mAb). The average KD values were calculated from […]
(§3) ELISA of binding of anti-Aβ antibodies to bivalent and tetravalent multi-antigen peptides Biotinylated Aβ1-15 multivalent multi-antigen peptides (MAPs) based on branched lysine residues were custom synthesized and purified (LifeTein). […]
(§4) goat anti-mouse IgG Fcγ fragment-specific antibody (Jackson ImmunoResearch) in Coating Buffer. The coated plates were washed, blocked as described in Methods, and incubated with serial dilutions of dimeric or tetrameric biotinylated Aβ1-15 MAP in Blocking Buffer at the indicated concent rations in […]
(§5) (1 picture or pasted object on this page, not shown here)
(§6) Figure S5. Binding of anti-Aβ antibodies to dimeric and tetrameric Aβ as assessed by ELISA. (a) Design of biotin-conjugated Aβ1-15 multivalent multi-antigen peptides (MAPs). Binding of anti-Aβ antibodies to MAPs with Aβ1-15x2 dimer (b) and Aβ1-15x4 tetramer (c).

[4] = system: Aβ1-40 fibrils; experiment: Negative-stain EM of fibrils with gold-conjugated antibodies; assay type: binding; conditions: fibril-associated 10-nm gold particles (≤10 nm to fibril) per μm^2; 100 images; ^chaducanumab higher
Procedure: Figure 3 Negative-stain electron microscopy of Aβ1-40 fibrils incubated with gold-conjugated anti-Aβ antibodies. […] 100 images were collected for each sample. A representative image for each data set is shown. Scale bars are 100 nm. (e) Labeling densities were calculated as the number of fibril-associated gold particles (distance of ≤10 nm to fibril) per 1 μm^2 for each image, with mean ± SD for each group. The differences in the gold-labeled antibodies binding to Aβ fibrils were tested with a one-way ANOVA.
(§7) Aβ1-40 and Aβ1-42 peptides (AnaSpec) were dissolved in 5 M guanidine-HCl, 50 mM Tris-HCl, pH 8.0 at a concentration of 1 mg/mL. For growth of the Aβ1-40 fibrils, the solution was dialyzed (dialysis tubes, 1 kDa cutoff, GE Healthcare) against buffer (100 mM Na2HPO4, pH 8, 0.01% NaN3) for 4–6 h, then sonicated and agitated based on protocols described by Petkova and colleagues. […]
(§8) A 5-μL aliquot of Aβ1-40 or Aβ1-42 fibril sample (1 mg/mL) was adsorbed for 1 min on a glow-discharged carbon-coated copper grid. […] All quantifications were done using the Visiopharm image analysis software. Gold-conjugated anti-Aβ antibodies and Aβ1-40 or Aβ1-42 fibrils were detected with a customized algorithm. […] The data were subjected to a D’Agostino & Pearson normality test, and P-values were subsequently calculated using a Kruskal-Wallis one-way analysis of variance (ANOVA).

[5] = target: Aβ1-16 peptide; experiment: Microscale thermophoresis (MST); assay type: binding; conditions: MST in solution; 5-TAMRA-labeled Aβ1-16; PBS, Triton X-100; average of three replicates
[6] = target: Aβ1-40 monomer; experiment: ELISA-based competition assay: antibody binding to immobilized oligomeric Aβ1-42 competed by free monomeric Aβ1-40; conditions: immobilized oligomeric Aβ1-42 2.5 μg/mL, antibody 0.4 nM, 2 h room temperature, mean of duplicate wells
Procedure: Finally, we determined the binding of Fab fragments of the antibodies to Aβ1-40 (Fig. 1d).
To measure competition by soluble monomeric Aβ1-40, plates were coated with Aβ1-42 peptide at 2.5 μg/mL as above. In this case the oligomeric preparation of […] was used as the substrate to ensure sufficient signal with each test antibody. […] The plates were incubated at room temperature for 2 h, and bound antibody was detected with an HRP-conjugated goat anti-mouse polyclonal secondary antibody followed by measurement of HRP activity using 1-Step TMB substrate as described above. All data points are the mean of duplicate wells.

[7] = system: Aβ1-42 fibrils; experiment: Negative-stain EM of fibrils with gold-conjugated antibodies; assay type: binding; conditions: fibril-associated gold particles per μm^2; 100 images; chaducanumab higher
Procedure: as §7, with “colleagues. For Aβ1-42 fibrils, the dialysis buffer was supplemented with 100 mM NaCl and 100 μM ZnCl2 to decrease fibril polymorphism, as previously described. All Aβ fibrils were grown at 24 °C for 3 days.” for “colleagues.”
as §8, with “(ANOVA). […]” for “(ANOVA).”
100 images were collected for each sample. […] (e) Labeling densities were calculated as the number of fibril-associated gold particles per µm2 for each image with mean ± SD for each group, as described in Fig 3. Quantification of the number of gold particles that […]

[8] = system: monomeric Aβ1-40; conditions: read-out: mAb binding soluble Aβ1-40 (EC50); ELISA; monomeric biotinylated Aβ1-40 on captured antibody (5 μg/mL); average of two measurements
Procedure: For preparation of monomeric Aβ peptides, the Aβ HFIP film was dissolved in dimethyl sulfoxide (DMSO) at a concentration of 1 mg/mL then diluted to the target concentration in assay buffers and used immediately.
To measure binding of soluble monomeric Aβ1-40 peptide to immobilized antibodies, plates were coated with 50 μL/well of 5 μg/mL AffiniPure goat anti-mouse IgG Fcγ fragment-specific antibody (Jackson ImmunoResearch) in Coating Buffer. […] Plates were incubated at room temperature for 1 h, washed 3 times with Wash Buffer, incubated with serially diluted monomeric biotin-conjugated Aβ1-40 (Aβ1-40-Lys-Biotin; AnaSpec) in Blocking Buffer at the indicated concentrations, and washed 3 times with Wash Buffer. Binding was detected using HRP-conjugated streptavidin (Thermo Fisher Scientific) followed by incubation with 1-Step TMB substrate.

[9] = system: soluble Aβ1-28; experiment: SPR, soluble Aβ1-28 binding to surface-captured intact antibody
Procedure: Analysis of A binding kinetics using surface plasmon resonance (SPR)
To identify if surface immobilization through C -terminal biotin affects the bi nding of antibodies targeting the N terminus, a separate experiment was performed, in which the binding of soluble Aβ1-28 to surface-captured antibody was measured (Fig. S1). This truncated form of A β was used to minimize aggregation and contains the full epitope for all antibodies tested (Table 1). Intact antibody was captured at 100 -600 RU on a CM5 chip prepared with mouse antibody capture reagent (GE Healthcare), and the binding response of Aβ1-28 was measured relative to a reference sensor with no anti -Aβ antibody. In this assay
Surface plasmon resonance analysis of A1-28 binding to anti-A antibodies immobilized on a muIgG -capture sensor chip surface.
corresponding fits to a 1:1 binding model (red curves).
up to 30 µM. Kinetics and affinity constants determined are listed in (e).

[10] = system: monomeric Aβ1-40-biotin; experiment: SPR, Fab fragments binding to surface-captured Aβ1-40-biotin; conditions: SPR Biacore T200
Procedure: Figure 2 Surface plasmon resonance analysis of the binding of anti-Aβ antibody Fab fragments to Aβ1-40-biotin immobilized on a biotin-capture sensor chip surface. […] Fabs were injected over an Aβ1-40-biotin coated sensor chip for 2 min in (a) and 3 min in (b–d), where the rising response describes the approach to steady state binding and beyond which the response drops due to dissociation of the Fabs.
Binding kinetics and affinity measurements were performed with a Biacore T200 instrument (GE Healthcare). Aβ1-40-biotin was captured on a Biotin CAPture chip (GE Healthcare) at 3–7 pg/mm^2 from solutions at 10–20 ng/mL in Biacore buffer (10 mM HEPES, pH 7.2, 150 mM NaCl, 3.4 mM EDTA, 0.05% BSA, 0.005% surfactant P20) using reagents and protocols provided by the manufacturer. […] Antibody Fab fragments were injected for 2-3 min at 30 μL/min and a range of concentrations in Biacore buffer, as indicated in the Fig. 2 legend, and the binding response relative to a reference sensor with no Aβ1-40-biotin was recorded. Data were analyzed with Biacore T200 Evaluation Software v3.0 using a 1:1 binding model.

[11] = system: tetrameric Aβ1-15 MAP; experiment: ELISA with multi-antigen peptides, tetramer; assay type: binding; conditions: result in words
Procedure: as §1, §2, §3, §4, §5, §6

[12] = target: fibrillar Aβ1-42; experiment: ELISA, binding of antibodies to immobilized Aβ1-42 fibrils; conditions: mIgG2a chimeric antibodies on fibrillar Aβ1-42 coated at 2.5 μg/mL, 2 h room temperature, average of two measurements, read-out: mAb binding aggregated Aβ1-42 (EC50)
Procedure: For binding of antibodies to immobilized Aβ, 96-well microplates (Nunc Maxisorp; Thermo Fisher Scientific) were coated with 50 μL/well of fibrillar Aβ1-42 peptide at 2.5 μg/mL overnight at 4 °C in Coating Buffer (15 mM Na2CO3, 35 mM NaHCO3, pH 9.6). […] Plates were washed with Wash Buffer (PBS containing 0.05% Tween-20) and blocked for 1 h at room temperature with Blocking Buffer (PBS containing 1% BSA). Antibodies or Fabs were serially diluted to the indicated concentrations in Assay Buffer, and 50 μL/well were added to plates in duplicate wells and incubated for 2 h at room temperature. Plates were washed three times with Wash Buffer, and bound antibodies or Fabs were detected using a horseradish peroxidase (HRP)-conjugated goat anti-mouse polyclonal secondary antibody (Jackson ImmunoResearch), followed by measurement of captured HRP by incubation with 1-Step TMB substrate (Thermo Fisher Scientific) following the manufacturer’s instructions.

[13] = Fab binding to Aβ1-40-biotin captured at 3–7 pg/mm^2, 1:1 binding model

| Molecule | Aβ selectivity (Monomer, Aggregate) [1] | EC50 [2] | affinity for dimeric Aβ1-15 MAP [3] | labeling density of ^chaducanumab compared to the named antibody [4] | Kd [5] | IC50 [6] | labeling density of chaducanumab compared to the named antibody [7] | EC50 [8] | decrease in affinity using soluble Aβ versus immobilized Aβ1-40 ([9]; comparison with Table 2) | decrease in association rate using soluble Aβ ([9]; comparison with immobilized Aβ1-40) | Kd ([9]; intact antibody captured at 100-600 RU on CM5 mouse antibody capture chip, 1:1 binding model, read-out: affinity of soluble Aβ1-28 for antibody) | Association rate, ka [10, 13] | Dissociation rate, kd [10, 13] | Kd ([10]; Fab binding to Aβ1-40-biotin, ^chaducanumab from steady state fit, read-out: Equilibrium affinity, KD) | affinity for tetrameric Aβ1-15 MAP [11] | EC50 [12] |
| --- | --- | --- | --- | --- | --- | --- | --- | --- | --- | --- | --- | --- | --- | --- | --- | --- |
| B1 | A ≫ M |  |  |  |  |  |  |  |  |  |  |  |  |  |  |  |
| B2 |  | 0.0059 µM |  |  |  |  |  |  |  |  |  |  |  |  |  |  |
| B3 |  | 0.0059 µM | sub-nanomolar | 3.6 fold | 0.097 µM | 0.33 µM | 3.1 fold | 0.3 µM | > 50 fold | 20 fold | ~1 µM | 660000 M⁻¹ s⁻¹ | 0.015 s⁻¹ | 0.023 µM | sub-nanomolar | 0.0003 µM |

— PMC5913127 (Scientific Reports, 2018)
